The target of the experiment is T1, peptide of the 14 C-terminal amino acids of human galanin (human, UniProt P22466 49-62).
T1 construct: domain: 14 C-terminal amino acids of human galanin
T1 peptide (looked up): GNHRSFSDKNGLTS
The experiment is described as follows: co-crystal structure.

B1: Fab fragment of murine antibody 5B4 (Fab, V domains shown)
VH: EVQLQQSGAELVRPGALVKLSCKASGFNIEDYYMHWVRQRPEEGLEWIGRIDPENGNTIYDPKFQGKASITADTSSNTAYLQLSSLTSEDTAVYYCVRGYVDWGQGTLVTVSA
VL: DVLMTQTPLSLPVSLGDQASISCRSSQSIVHSDGDTYLEWYLQKAGQSPKLLIYKVSNRFSGVPDRFSGSGSGTDFTLKISRVEAEDLGLYYCFQGSHVPYTFGGGTKLEIKR
notes: Papain Fab of the hybridoma antibody; also called 5B4 Fab
In the case of B1, the binding result was “binds”.

B2: Fab fragment of murine antibody 4B3 (Fab, V domains shown)
VH: EIQLQQSEAELVKPGASVRLSCATSGFNIKDYYIHWVKQTTEQGLEWIGRIDPEDGETEYAPKFQGKATIAADTSSNTAYLLLNSLSSEDTAVYYCTRGYASWGQGTTLTVSS
VL: DVLMTQTPLSLSVSLGDQASISCRSSQSFVHSDGNTYLEWYLQKSGQSPKLLIYKVSNRFSGVPDRFSGSGSGTDFTLKINRVEAEDLGVYYCFQGSHVPYTFGGGTKLEIKR
notes: Papain Fab of the hybridoma antibody; also called 4B3 Fab
For B2, the binding result was “binds”.

B3: Fab fragment of murine antibody 1D7 (Fab, V domains shown)
VH: EIQLQQSEAELVKPGASVRLSCATSGFNIKDYYIHWVKQTTEQGLEWIGRIDPEDGETEYAPKFQGKATIAADTSSNTAYLLLNSLSSEDTAVYYCTRGYASWGQGTTLTVSS
VL: DVLMTQTPLSLSVSLGDQASISCRSSQSFVHSDGNTYLEWYLQKSGQSPKLLIYKVSNRFSGVPDRFSGSGSGTDFTLKINRVEAEDLGVYYCFQGSHVPYTFGGGTKLEIKR
notes: Papain Fab of the hybridoma antibody; also called 1D7 Fab
On to B3, for which the binding result is on record as “binds”.

These data come from US20050152896A1 (Amgen, published 2005).
